± gives the standard deviation of the averaged measurements.
system: ATP; test: switch fluorescence ratio, 500 uM ATP over buffer (Cy3 cluster intensity, sum of 5 cycles each) (fold (ratio)); higher = stronger signal-on switching upon ATP binding; sequences stand for … in TCGTCGGCAGCGTCAGATGTGTATAAGAGACAGTTTTTTTTTTTTTTTTTTTTTTTTT…TC; details: aptamer strand: ATP DNA aptamer (quencher-CACCTGGGGGAGTATTGCGGAGGAAGG + anchor), 100 nM annealed; ATP concentration: 500 uM
How it was run: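 Values give the fluorescence ratio for each switch-domain sequence, averaged from per-cluster ratios of summed target-cycle to summed buffer-cycle Cy3 intensity. The Cy3-labelled switching-strand clusters sat on a modified Illumina MiSeq flow-cell, were annealed to 100 nM quencher-labelled ATP aptamer, and were imaged in selection buffer, then after 15 min with 500 uM ATP at 22 °C. Five cycles ran with NaOH stripping and re-annealing between them, and clusters outside 100-1000 RFU were excluded.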
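Note: ATP exposure 15 min at 22 °C before imaging.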

| Sequence | switch fluorescence ratio |
| --- | --- |
| AAAGGTGATG | 0.978 ± 0.04 |
| AAAGGTTGAT | 1.01 ± 0.011 |
| AAAGTATCTT | 1.02 ± 0.037 |
| AAAGTATTTC | 1.02 ± 0.015 |
| AAAGTCAGTA | 0.9818 ± 0.007 |
| AAAGTCATGG | 0.948 ± 0.013 |
| AAAGTCCTA | 0.982 ± 0.015 |
| AAAGTCGTTC | 0.977 ± 0.028 |
| AAAGTGGGGT | 1 ± 0.018 |
| AAAGTGGTGT | 0.9845 ± 0.0018 |
| AAAGTTCGAA | 0.977 ± 0.035 |
| AAAGTTCGAG | 0.99 ± 0.021 |
| AAAGTTCGGC | 1.06 ± 0.024 |
| AAAGTTTATG | 1.007 ± 0.0053 |
| AAAGTTTCTC | 1 ± 0.032 |
| AAAGTTTGG | 0.977 ± 0.017 |
| AAAGTTTTAT | 0.984 ± 0.025 |
| AAAGTTTTTT | 1.19 ± 0.39 |
| AAATAAACGC | 1.025 ± 0.0031 |
| AAATAATTAG | 1.01 ± 0.016 |
| AAATACCCAG | 1.04 ± 0.034 |
| AAATAGAAAT | 0.96 ± 0.011 |

| Sequence | switch fluorescence ratio |
| --- | --- |
| AAATAGATCG | 1.05 ± 0.066 |
| AAATAGTGCC | 1.036 ± 0.0029 |
| AAATATGAGC | 0.993 ± 0.033 |
| AAATATTTAC | 1.12 ± 0.11 |
| AAATCAAGTG | 0.97516 ± 1.6e-05 |
| AAATCCGCG | 1.28 ± 0.031 |
| AAATCCGGTT | 1.008 ± 0.0028 |
| AAATCGGTGG | 1.01 ± 0.046 |
| AAATCGTATG | 0.974 ± 0.034 |
| AAATCGTCCA | 0.992 ± 0.057 |
| AAATCTCTTT | 1 ± 0.014 |
| AAATCTGTAG | 0.9849 ± 0.002 |
| AAATGAAAAA | 0.99 ± 0.091 |
| AAATGATAGC | 1.016 ± 0.0037 |
| AAATGATCCG | 1.08 ± 0.063 |
| AAATGCAGCT | 0.977 ± 0.016 |
| AAATGCGGCC | 1 ± 0.067 |
| AAATGCTACT | 1.02 ± 0.028 |
| AAATGCTGGG | 0.99 ± 0.031 |
| AAATGGAGGG | 1.01 ± 0.044 |
| AAATGGCTGG | 0.9982 ± 0.0091 |
| AAATGGGAGG | 0.996 ± 0.032 |

| Sequence | switch fluorescence ratio |
| --- | --- |
| AAATGGGGGA | 0.991 ± 0.04 |
| AAATGGTCGA | 0.974 ± 0.01 |
| AAATGGTCGG | 0.974 ± 0.017 |
| AAATGGTGGG | 1.13 ± 0.16 |
| AAATGTATGT | 0.988 ± 0.037 |
| AAATGTGCTG | 1 ± 0.024 |
| AAATGTGGGG | 0.976 ± 0.049 |
| AAATGTGTAG | 0.977 ± 0.024 |
| AAATGTTCAC | 0.996 ± 0.034 |
| AAATGTTTTT | 0.999 ± 0.028 |
| AAATTAGCTT | 0.987 ± 0.084 |
| AAATTATCGG | 1 ± 0.042 |
| AAATTCAATA | 1.002 ± 0.0033 |
| AAATTCCGGG | 1.02 ± 0.035 |
| AAATTCCTAC | 1.01 ± 0.015 |
| AAATTCGAAG | 0.982 ± 0.011 |
| AAATTCGCGT | 1.01 ± 0.015 |
| AAATTCGGGG | 0.959 ± 0.037 |
| AAATTCGTTA | 0.983 ± 0.048 |
| AAATTGAACT | 1.03 ± 0.017 |
| AAATTGCGAG | 1.005 ± 0.0033 |
| AAATTGCGGG | 0.994 ± 0.048 |

| Sequence | switch fluorescence ratio |
| --- | --- |
| AAATTGCTTA | 1 ± 0.024 |
| AAATTGGAAG | 1.05 ± 0.078 |
| AAATTGGGAG | 1.016 ± 0.0026 |
| AAATTGTTG | 1.022 ± 0.0087 |
| AAATTTACCG | 1.05 ± 0.015 |
| AAATTTAGTA | 0.99 ± 0.018 |
| AAATTTTTCT | 1.05 ± 0.07 |
| AAATTTTTTT | 0.996 ± 0.054 |
| AACAAGGGGG | 1.01 ± 0.013 |
| AACACAGCTC | 1.02 ± 0.024 |
| AACACCTCTC | 1.1 ± 0.07 |
| AACACGGGTA | 1.02 ± 0.055 |
| AACAGAGTTT | 1.02 ± 0.026 |
| AACAGCGGGA | 1.08 ± 0.068 |
| AACAGCGGGC | 1.03 ± 0.084 |
| AACAGCTGTG | 0.998 ± 0.013 |
| AACAGGAAGC | 1.01 ± 0.017 |
| AACAGGGCAC | 1.018 ± 0.0051 |
| AACAGGGGGG | 1.02 ± 0.081 |
